The record followed here is patent US20220154204.

One data set deals with GST-OST1/SnRK2.6 (UniProt Q940H6).
In another data set the target is GST-OST1/SnRK2.6 (D140A) (UniProt Q940H6).
For the next data set, the target named is T1, GST-SnRK2.2 (UniProt Q39192).
T1 sequence: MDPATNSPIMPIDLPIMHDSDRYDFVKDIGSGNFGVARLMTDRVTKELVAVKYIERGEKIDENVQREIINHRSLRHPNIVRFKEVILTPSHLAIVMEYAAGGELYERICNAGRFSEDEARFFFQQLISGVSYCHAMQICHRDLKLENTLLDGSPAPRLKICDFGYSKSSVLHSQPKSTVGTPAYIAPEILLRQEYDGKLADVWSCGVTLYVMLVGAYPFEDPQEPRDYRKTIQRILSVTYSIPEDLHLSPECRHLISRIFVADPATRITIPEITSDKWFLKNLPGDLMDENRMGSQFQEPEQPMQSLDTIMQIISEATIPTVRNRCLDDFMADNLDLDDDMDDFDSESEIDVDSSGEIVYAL

A further data set concerns the target T2, GST-SnRK2.3 (UniProt Q39193).
T2 sequence: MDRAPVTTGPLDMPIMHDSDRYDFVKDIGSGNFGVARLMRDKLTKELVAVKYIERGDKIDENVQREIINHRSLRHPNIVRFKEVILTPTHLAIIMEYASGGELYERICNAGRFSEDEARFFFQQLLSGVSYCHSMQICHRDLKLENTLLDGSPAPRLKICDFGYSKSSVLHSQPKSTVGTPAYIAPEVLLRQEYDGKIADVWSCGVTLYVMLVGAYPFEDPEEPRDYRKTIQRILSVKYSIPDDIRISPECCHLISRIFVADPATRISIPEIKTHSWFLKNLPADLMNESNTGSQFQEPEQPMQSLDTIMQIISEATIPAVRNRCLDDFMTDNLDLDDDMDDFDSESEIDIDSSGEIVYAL

The target in a further data set is T3, GST-SnRK2.4 (UniProt P43291).
T3 sequence: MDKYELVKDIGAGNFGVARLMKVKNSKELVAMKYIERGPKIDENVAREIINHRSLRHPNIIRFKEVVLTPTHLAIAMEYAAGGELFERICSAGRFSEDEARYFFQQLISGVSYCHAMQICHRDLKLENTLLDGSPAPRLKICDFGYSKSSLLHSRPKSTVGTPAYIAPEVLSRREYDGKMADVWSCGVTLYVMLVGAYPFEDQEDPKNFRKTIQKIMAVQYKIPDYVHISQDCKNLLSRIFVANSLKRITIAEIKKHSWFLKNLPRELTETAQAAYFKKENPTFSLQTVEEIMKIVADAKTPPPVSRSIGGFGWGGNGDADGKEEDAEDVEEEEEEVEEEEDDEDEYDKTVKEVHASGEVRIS

The target of data set [1] is T4, dephosphorylated recombinant His-OST1/SnRK2.6 (UniProt Q940H6).
T4 sequence: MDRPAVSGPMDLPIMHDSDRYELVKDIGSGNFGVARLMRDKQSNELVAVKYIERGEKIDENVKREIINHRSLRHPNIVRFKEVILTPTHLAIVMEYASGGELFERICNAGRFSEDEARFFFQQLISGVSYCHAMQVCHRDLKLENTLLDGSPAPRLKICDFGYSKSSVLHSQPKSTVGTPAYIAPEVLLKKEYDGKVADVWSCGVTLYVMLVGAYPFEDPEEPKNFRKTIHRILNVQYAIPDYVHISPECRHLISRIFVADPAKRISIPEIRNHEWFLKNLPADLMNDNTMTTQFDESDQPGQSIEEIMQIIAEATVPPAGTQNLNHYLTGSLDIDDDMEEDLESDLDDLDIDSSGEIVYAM

Sequence of CPK23 (chain, as listed by the source): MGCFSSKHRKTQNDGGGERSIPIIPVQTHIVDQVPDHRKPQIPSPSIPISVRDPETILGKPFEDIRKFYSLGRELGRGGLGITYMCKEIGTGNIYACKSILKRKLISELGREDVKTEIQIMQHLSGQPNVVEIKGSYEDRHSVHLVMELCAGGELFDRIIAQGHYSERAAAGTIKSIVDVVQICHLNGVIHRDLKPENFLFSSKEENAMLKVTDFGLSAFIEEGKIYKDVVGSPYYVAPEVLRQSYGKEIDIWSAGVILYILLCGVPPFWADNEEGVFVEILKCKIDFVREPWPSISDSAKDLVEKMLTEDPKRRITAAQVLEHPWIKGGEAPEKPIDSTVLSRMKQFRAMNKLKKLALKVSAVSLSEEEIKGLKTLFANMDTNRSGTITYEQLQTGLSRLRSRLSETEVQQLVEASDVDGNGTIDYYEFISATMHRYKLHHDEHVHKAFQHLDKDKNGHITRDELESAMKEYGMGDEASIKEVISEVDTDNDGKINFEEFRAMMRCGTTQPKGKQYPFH

Regarding CPK6, the “in vitro phosphorylation assay with 32P-ATP after dephosphorylation of OST1” value with GST-OST1/SnRK2.6 is “did not phosphorylate OST1/SnRK2.6 after dephosphorylation”.
Same read-out and setting: the same measure for CPK23: “did not phosphorylate OST1/SnRK2.6 after dephosphorylation”.
Take GST-M3Kδ1 kinase domain: the “in vitro phosphorylation assay with 32P-ATP” value with GST-OST1/SnRK2.6 (D140A) is “the M3Kδ1, 66 and 67 kinase domains directly phosphorylated the kinase inactive OST1/SnRK2.6 (D140A) mutant isoform”. For the same substance, the “phosphorylation sites by LC-MS/MS after in vitro phosphorylation” value with GST-OST1/SnRK2.6 (D140A) was “M3Kδ1 phosphorylated the OST1/SnRK2.6 residues Ser171, Ser175 and Thr176 in the OST1 activation loop”. The “OST1/SnRK2.6 activity, in-gel kinase assay in vitro” value (shortened to “OST1/SnRK2.6 activity”) in the data set with GST-OST1/SnRK2.6 was “the truncated kinase domain (M3Kδ1_KD) has a higher activity than the full length M3Kδ1 protein (M3Kδ1_Full)”; in data set [1] it was “three M3Ks from the subgroup B3, named M3Kδ1, 66 and 67, were found to strongly activate OST1/SnRK2.6”. The “SnRK2 kinase activity, in-gel kinase assay in vitro” value (“SnRK2 kinase activity” for short) is “M3Kδ1 strongly activated SnRK2.2 and 2.3” with GST-SnRK2.2; “M3Kδ1 strongly activated SnRK2.2 and 2.3” with GST-SnRK2.3; “M3Kδ1 also activated SnRK2.4 kinase in vitro” with GST-SnRK2.4.
With GST-M3Kδ6 kinase domain, the “in vitro phosphorylation assay with 32P-ATP” value in the data set with GST-OST1/SnRK2.6 (D140A) was “the M3Kδ1, 66 and 67 kinase domains directly phosphorylated the kinase inactive OST1/SnRK2.6 (D140A) mutant isoform”. Also, the “SnRK2 kinase activity” value with GST-SnRK2.3 was “SnRK2.3 was also activated by M3Kδ6 and M3Kδ7”. The “OST1/SnRK2.6 activity” value in data set [1] is “three M3Ks from the subgroup B3, named M3Kδ1, 66 and 67, were found to strongly activate OST1/SnRK2.6”.
In the case of GST-M3Kδ7 kinase domain, the “in vitro phosphorylation assay with 32P-ATP” value with GST-OST1/SnRK2.6 (D140A) is “the M3Kδ1, 66 and 67 kinase domains directly phosphorylated the kinase inactive OST1/SnRK2.6 (D140A) mutant isoform”. In the data set with GST-SnRK2.3, the “SnRK2 kinase activity” value is “SnRK2.3 was also activated by M3Kδ6 and M3Kδ7”. The “OST1/SnRK2.6 activity” value in data set [1] is “three M3Ks from the subgroup B3, named M3Kδ1, 66 and 67, were found to strongly activate OST1/SnRK2.6”.
M3Kδ6 kinase domain mutant (K775W): the “OST1/SnRK2.6 activity” value in data set [1] was “OST1/SnRK2 kinase activation was not induced by an inactive mutant M3K kinase protein, M3Kδ6 (K775W)”.
As for full-length His-M3Kδ1, the “OST1/SnRK2.6 activity” value in the data set with GST-OST1/SnRK2.6 is on record as “Full-length M3Kδ1 activates OST1/SnRK2.6 in vitro”.
